Test results: patent US20210340276A1

Target: Human cancer-specific MUC1 peptide (PTL 1) (human)
Test: ELISA, MUC1 peptide immobilized on 384-well plate, HRP anti-human Igκ detection, luminescence

Binder | EC50 [nM]
Sample No. 1: [DFO-C(═O)-(1,3-phenylene)-C(═O)-Gly-Lys-Z2]p-Fab (Fab, V domains shown, may carry the labeling moiety; sites not stated; [DFO-C(═O)-(1,3-phenylene)-C(═O)-Gly-Lys-Z2] labeling moiety bound via 2-iminothiolane to amino group(s) of the Fab, one or two per Fab by MS, sites and chain not stated; N-terminal Gln into pyroglutamic acid in a great majority (Example 2)) VH: QVQLVQSGAEVKKPGASVKVSCKASGYTFTNYGLSWVRQAPGQGLEWMGENHPGSGIIYHNEKFRGRVTLTADRSTSTAYMELSSLRSEDTAVYYCARSSGTRGFDYWGQGTLVTVSS VL: DVVMTQTPLSLSVTPGQPASISCRSSQSIVHSNGNTYLEWYLQKPGQSPQLLIYRVSNRFSGVPDRFSGSGSGTDFTLKISRVEAEDVGVYYCFQGSHGPWTFGQGTKLEIKR | 0.29
Sample No. 2: [DFO-C(═O)-CH2O-(1,3-phenylene)-C(═O)-Gly-Lys-Z2]p-Fab (Fab, V domains shown, may carry the labeling moiety; sites not stated; [DFO-C(═O)-CH2O-(1,3-phenylene)-C(═O)-Gly-Lys-Z2] labeling moiety bound via 2-iminothiolane to amino group(s) of the Fab, one or two per Fab by MS, sites and chain not stated; N-terminal Gln into pyroglutamic acid in a great majority (Example 2)) VH: QVQLVQSGAEVKKPGASVKVSCKASGYTFTNYGLSWVRQAPGQGLEWMGENHPGSGIIYHNEKFRGRVTLTADRSTSTAYMELSSLRSEDTAVYYCARSSGTRGFDYWGQGTLVTVSS VL: DVVMTQTPLSLSVTPGQPASISCRSSQSIVHSNGNTYLEWYLQKPGQSPQLLIYRVSNRFSGVPDRFSGSGSGTDFTLKISRVEAEDVGVYYCFQGSHGPWTFGQGTKLEIKR | 0.3
Sample No. 5: [DOTA-Gly-Lys-Z2]p-Fab (Fab, V domains shown, may carry the labeling moiety; sites not stated; [DOTA-Gly-Lys-Z2] labeling moiety bound via 2-iminothiolane to amino group(s) of the Fab, one or two per Fab by MS, sites and chain not stated; N-terminal Gln into pyroglutamic acid in a great majority (Example 2)) VH: QVQLVQSGAEVKKPGASVKVSCKASGYTFTNYGLSWVRQAPGQGLEWMGENHPGSGIIYHNEKFRGRVTLTADRSTSTAYMELSSLRSEDTAVYYCARSSGTRGFDYWGQGTLVTVSS VL: DVVMTQTPLSLSVTPGQPASISCRSSQSIVHSNGNTYLEWYLQKPGQSPQLLIYRVSNRFSGVPDRFSGSGSGTDFTLKISRVEAEDVGVYYCFQGSHGPWTFGQGTKLEIKR | 0.31
Sample No. 6: [DOTA-NH-CH2-(1,3-phenylene)-C(═O)-Gly-Lys-Z2]p-Fab (Fab, V domains shown, may carry the labeling moiety; sites not stated; [DOTA-NH-CH2-(1,3-phenylene)-C(═O)-Gly-Lys-Z2] labeling moiety bound via 2-iminothiolane to amino group(s) of the Fab, one to three per Fab by MS, sites and chain not stated; N-terminal Gln into pyroglutamic acid in a great majority (Example 2)) VH: QVQLVQSGAEVKKPGASVKVSCKASGYTFTNYGLSWVRQAPGQGLEWMGENHPGSGIIYHNEKFRGRVTLTADRSTSTAYMELSSLRSEDTAVYYCARSSGTRGFDYWGQGTLVTVSS VL: DVVMTQTPLSLSVTPGQPASISCRSSQSIVHSNGNTYLEWYLQKPGQSPQLLIYRVSNRFSGVPDRFSGSGSGTDFTLKISRVEAEDVGVYYCFQGSHGPWTFGQGTKLEIKR | 0.3
Sample No. 7: [DOTA-Met-Ile-NH-(CH2)2-Z1]p-Fab (Fab, V domains shown, may carry the labeling moiety; sites not stated; [DOTA-Met-Ile-NH-(CH2)2-Z1] labeling moiety bound via 2-iminothiolane to amino group(s) of the Fab, one to three per Fab by MS, sites and chain not stated; N-terminal Gln into pyroglutamic acid in a great majority (Example 2)) VH: QVQLVQSGAEVKKPGASVKVSCKASGYTFTNYGLSWVRQAPGQGLEWMGENHPGSGIIYHNEKFRGRVTLTADRSTSTAYMELSSLRSEDTAVYYCARSSGTRGFDYWGQGTLVTVSS VL: DVVMTQTPLSLSVTPGQPASISCRSSQSIVHSNGNTYLEWYLQKPGQSPQLLIYRVSNRFSGVPDRFSGSGSGTDFTLKISRVEAEDVGVYYCFQGSHGPWTFGQGTKLEIKR | 0.31
Sample No. 3: [DOTA-CH2-(1,4-phenylene)-NH-C(═S)]p-Fab (Fab, V domains shown, may carry the labeling moiety; sites not stated; [DOTA-CH2-(1,4-phenylene)-NH-C(═S)] (from p-SCN-Bn-DOTA) bound to amino group(s) of the Fab, one to four per Fab by MS, sites and chain not stated; N-terminal Gln into pyroglutamic acid in a great majority (Example 2)) VH: QVQLVQSGAEVKKPGASVKVSCKASGYTFTNYGLSWVRQAPGQGLEWMGENHPGSGIIYHNEKFRGRVTLTADRSTSTAYMELSSLRSEDTAVYYCARSSGTRGFDYWGQGTLVTVSS VL: DVVMTQTPLSLSVTPGQPASISCRSSQSIVHSNGNTYLEWYLQKPGQSPQLLIYRVSNRFSGVPDRFSGSGSGTDFTLKISRVEAEDVGVYYCFQGSHGPWTFGQGTKLEIKR | 0.49
Sample No. 4: [DOTA]p-Fab (Fab, V domains shown, may carry the labeling moiety; sites not stated; DOTA bound directly (via N-hydroxysulfosuccinimidyl DOTA) to amino group(s) of the Fab, one or two per Fab by MS, sites and chain not stated; N-terminal Gln into pyroglutamic acid in a great majority (Example 2)) VH: QVQLVQSGAEVKKPGASVKVSCKASGYTFTNYGLSWVRQAPGQGLEWMGENHPGSGIIYHNEKFRGRVTLTADRSTSTAYMELSSLRSEDTAVYYCARSSGTRGFDYWGQGTLVTVSS VL: DVVMTQTPLSLSVTPGQPASISCRSSQSIVHSNGNTYLEWYLQKPGQSPQLLIYRVSNRFSGVPDRFSGSGSGTDFTLKISRVEAEDVGVYYCFQGSHGPWTFGQGTKLEIKR | 0.35
